# Laboratory results published in paper PMC2796082.
# Where two headings read alike, the source gives them in different places.
# T1: TGF-β2
# T1 sequence (P61812 303-414, species assumed, looked up): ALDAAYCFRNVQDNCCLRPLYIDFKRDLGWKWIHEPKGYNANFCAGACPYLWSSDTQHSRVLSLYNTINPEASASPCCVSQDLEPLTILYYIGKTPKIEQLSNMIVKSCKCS
# T2: TGF-β3
# T2 sequence (P10600 301-412, species assumed, looked up): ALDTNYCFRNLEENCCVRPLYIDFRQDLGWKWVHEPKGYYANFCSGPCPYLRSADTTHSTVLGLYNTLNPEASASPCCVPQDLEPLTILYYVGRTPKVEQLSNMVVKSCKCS
# B1: Sol Δ11, soluble betaglycan uromodulin-like domain (domain or fragment)
# chain: GPEPSTRCELSPINASHPVQAIPRRGWKEGEDRIPRPKQPIVPSVQLLPDHREPEEVQGGVDIALSVKCDHEKMVVAVDKDSFQTNGYSGMELTLLDPSCKAKMNGTHFVLESPLNGCGTRHRRSTPDGVVYYNSIVVQAPSPGDSSGWPDGYEDLESGDNGFPGDGDEGETAPLSRAGVVVFNCSLRQLRNPSGFQGQLDGNATFNMELYNTDLFLVPSPGVFSVAENEHVYVEVSVTKADQDLGFAIQTCFLSPYSNPDRMSDYTIIENICPKDDSVKFYSSKRVHFPIPHAEVDKKRFSFLFKSVFNTSLLFLHCELTLCSRKKGSLKLPRCVTPDDACTSLDATMIWTMMQNKKTFTKPLAVVLQVDYKENVPSTKDSSPIPPPPPQIFH
# B2: Recombinant soluble betaglycan (receptor)
# chain: GPEPSTRCELSPINASHPVQALMESFTVLSGCASRGTTGLPREVHVLNLRSTDQGPGQRQREVTLHLNPIASVHTHHKPIVFLLNSPQPLVWHLKTERLAAGVPRLFLVSEGSVVQFPSGNFSLTAETEERNFPQENEHLLRWAQKEYGAVTSFTELKIARNIYIKVGEDQVFPPTCNIGKNFLSLNYLAEYLQPKAAEGCVLPSQPHEKEVHIIELITPSSNPYSAFQVDIIVDIRPAQEDPEVVKNLVLILKCKKSVNWVIKSFDVKGNLKVIAPNSIGFGKESERSMTMTKLVRDDIPSTQENLMKWALDNGYRPVTSYTMAPVANRFHLRLENNEEMRDEEVHTIPPELRILLDPDHPPALDNPLFPGEGSPNGGLPFPFPDIPRRGWKEGEDRIPRPKQPIVPSVQLLPDHREPEEVQGGVDIALSVKCDHEKMVVAVDKDSFQTNGYSGMELTLLDPSCKAKMNGTHFVLESPLNGCGTRHRRSTPDGVVYYNSIVVQAPSPGDSSGWPDGYEDLESGDNGFPGDGDEGETAPLSRAGVVVFNCSLRQLRNPSGFQGQLDGNATFNMELYNTDLFLVPSPGVFSVAENEHVYVEVSVTKADQDLGFAIQTCFLSPYSNPDRMSDYTIIENICPKDDSVKFYSSKRVHFPIPHAEVDKKRFSFLFKSVFNTSLLFLHCELTLCSRKKGSLKLPRCVTPDDACTSLDATMIWTMMQNKKTFTKPLAVVLQVDYKENVPSTKDSSPIPPPPPQIFHGLDTLTV
# modifications: glycoprotein, devoid of GAG chains
# B3: Sol Δ10, soluble betaglycan endoglin-like domain (domain or fragment)
# chain: GPEPSTRCELSPINASHPVQALMESFTVLSGCASRGTTGLPREVHVLNLRSTDQGPGQRQREVTLHLNPIASVHTHHKPIVFLLNSPQPLVWHLKTERLAAGVPRLFLVSEGSVVQFPSGNFSLTAETEERNFPQENEHLLRWAQKEYGAVTSFTELKIARNIYIKVGEDQVFPPTCNIGKNFLSLNYLAEYLQPKAAEGCVLPSQPHEKEVHIIELITPSSNPYSAFQVDIIVDIRPAQEDPEVVKNLVLILKCKKSVNWVIKSFDVKGNLKVIAPNSIGFGKESERSMTMTKLVRDDIPSTQENLMKWALDNGYRPVTSYTMAPVANRFHLRLENNEEMRDEEVHTIPPELRILLDPDHPPALDNPLFPGEGSPNGGLPFPFPD
# Legend:
# Test in all cases: SPR
# TGF-β1 [1] = target: TGF-β1
# TGF-β1, sequence (P01137 279-390): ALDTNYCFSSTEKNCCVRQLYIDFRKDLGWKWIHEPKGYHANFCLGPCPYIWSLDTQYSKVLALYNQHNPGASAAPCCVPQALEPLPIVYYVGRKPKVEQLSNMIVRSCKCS
# TGF-β2 [2] = target: T1, TGF-β2
# TGF-β3 [3] = target: T2, TGF-β3
# TGF-β1 [4] = target: TGF-β1; remark: listed apart in the source
# TGF-β2 [5] = target: T1, TGF-β2; remark: listed apart in the source
# TGF-β3 [6] = target: T2, TGF-β3; remark: listed apart in the source
binder,measurement,setting,value
B1,Kd,TGF-β1 [1],2.9 µM
same,Kd,TGF-β2 [2],2.2 µM
same,Kd,TGF-β3 [3],4.4 µM
same,Kd,TGF-β1 [4],9.7 µM
same,Kd,TGF-β2 [5],2.6 µM
same,Kd,TGF-β3 [6],5.8 µM
B2,Kd,TGF-β1 [4],0.095 µM
same,Kd,TGF-β2 [5],0.036 µM
same,Kd,TGF-β3 [6],0.143 µM
B3,Kd,TGF-β1 [4],1.9 µM
same,Kd,TGF-β3 [6],5.8 µM
